The supplement of paper PMC11780869

System: Bacillus subtilis
Assay: cleaved RNA product abundance (RNA/gDNA barcode ratio) relative to median wild-type variant (ratio to wild type); higher = more accumulation of the downstream cleavage product
Conditions: cleavage site: cggR-gapA (positions -7 to +36 mutated)
Procedure, shortened: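 Oligos with a 9% error rate were used to build barcoded, mutagenized RNase Y cleavage-site windows within truncated aprE or tetM reporter mRNAs, which were integrated into the B. subtilis chromosome. Cultures were grown in LB at 37°C between OD600 0.0003 and 0.3. Cleaved RNA was gel-selected, reverse transcribed and barcode-sequenced, as were genomic DNA barcodes, and UMIs were collapsed. Cleaved product abundance is the scaled RNA:gDNA barcode ratio, with the median construct carrying the unmutated site as reference.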

[1] = experiment (reporter, strain, medium): exp 4a: truncated aprE reporter, strain BJT201 with 2% xylose (RNase J1 expressed)
[2] = experiment (reporter, strain, medium): exp 2b: truncated aprE reporter, strain BJT200
[3] = experiment (reporter, strain, medium): exp 6: tetM reporter, strain 168

| Sequence | cleaved RNA product abundance [1] | cleaved RNA product abundance [2] | cleaved RNA product abundance [3] |
| --- | --- | --- | --- |
| ACAGACGAAGGAGCCGCAAAGAAGTTATTAACGGATGAATAATCCCTCAATATAAATGTCTCTCACTTATTTAAA | 0.0543 |  |  |
| ACAGACGAAGGAGCCGCAAAGAAGTTATTAACGGATGAATAATCCCTCAATATACATATCTCTCACTTATTTAAA | 0.231 |  |  |
| ACAGACGAAGGAGCCGCAAAGAAGTTATTAACGGATGAATAATCCCTCAATATAGATATCTCTCACTTATTTAAA | 0.158 |  |  |
| ACAGACGAAGGAGCCGCAAAGAAGTTATTAACGGATGAATAATCCCTCAATATATATATCTCTCACTTATTTAAA | 0.152 | 0.158 |  |
| ACAGACGAAGGAGCCGCAAAGAAGTTATTAACGGATGAATAATCCCTCAATATTAATATCTCTCACTTATTTAAA | 0.0699 | 0.0877 |  |
| ACAGACGAAGGAGCCGCAAAGAAGTTATTAACGGATGAATAATCCCTCAATCTAAATATCTCTCACTTATTTAAA | 0.102 |  |  |
| ACAGACGAAGGAGCCGCAAAGAAGTTATTAACGGATGAATAATCCCTCATTATAAATATCTCTCACTTATTTAAA | 0.141 | 0.128 |  |
| ACAGACGAAGGAGCCGCAAAGAAGTTATTAACGGATGAATAATCCCTCCATATAAATATCTCTCACTTATTTAAA | 0.129 |  |  |
| ACAGACGAAGGAGCCGCAAAGAAGTTATTAACGGATGAATAATCCCTCTATATAAATATCTCTCACTTATTTAAA | 0.133 |  |  |
| ACAGACGAAGGAGCCGCAAAGAAGTTATTAACGGATGAATAATCCCTGAATATAAATATCTCTCACTTATTTAAA | 0.107 |  |  |
| ACAGACGAAGGAGCCGCAAAGAAGTTATTAACGGATGAATAATCCCTTAATATAAATATCTCTCACTTATTTAAA | 0.671 | 0.98 |  |
| ACAGACGAAGGAGCCGCAAAGAAGTTATTAACGGATGAATAATCCTTCAATATAAATATCTCTCACTTATTTAAA | 0.223 |  |  |
| ACAGACGAAGGAGCCGCAAAGAAGTTATTAACGGATGAATAATCTCTCAATATAAATATCTCTCACTTATTTAAA | 0.183 | 0.0813 |  |
| ACAGACGAAGGAGCCGCAAAGAAGTTATTAACGGATGAATAATTCCTCAATATAAATATCTCTCACTTATTTAAA | 0.152 |  |  |
| ACAGACGAAGGAGCCGCAAAGAAGTTATTAACGGATGAATACTCCCTCAATATAAATATCTCTCACTTATTTAAA | 0.133 |  |  |
| ACAGACGAAGGAGCCGCAAAGAAGTTATTAACGGATGAATAGTCCCTCAATATAAATATCTCTCACTTATTTAAA | 0.174 |  |  |
| ACAGACGAAGGAGCCGCAAAGAAGTTATTAACGGATGAATATTCCCTCAATATAAATATCTCTCACTTATTTAAA | 0.138 |  |  |
| ACAGACGAAGGAGCCGCAAAGAAGTTATTAACGGATGAATTATCCCTCAATATAAATATCTCTCACTTATTTAAA | 0.179 | 0.12 |  |
| ACAGACGAAGGAGCCGCAAAGAAGTTATTAACGGATGGATAATCCCTCAATATAAATATCTCTCACTTATTTAAA | 0.152 |  |  |

| Sequence | cleaved RNA product abundance [1] | cleaved RNA product abundance [2] | cleaved RNA product abundance [3] |
| --- | --- | --- | --- |
| ACAGACGAAGGAGCCGCAAAGAAGTTATTAACGGATGTATAATCCCTCAATATAAATATCTCTCACTTATTTAAA | 0.147 | 0.124 |  |
| ACAGACGAAGGAGCCGCAAAGAAGTTATTAACGGATTAATAATCCCTCAATATAAATATCTCTCACTTATTTAAA | 0.141 | 0.121 |  |
| ACAGACGAAGGAGCCGCAAAGAAGTTATTAACGGCTGAATAATCCCTCAATATAAATATCTCTCACTTATTTAAA | 0.0788 | 0.0646 |  |
| ACAGACGAAGGAGCCGCAAAGAAGTTATTAACGGTTGAATAATCCCTCAATATAAATATCTCTCACTTATTTAAA | 0.113 | 0.0654 |  |
| ACAGACGAAGGAGCCGCAAAGAAGTTATTAACGTATGAATAATCCCTCAATATAAATATCTCTCACTTATTTAAA | 0.0853 | 0.098 |  |
| ACAGACGAAGGAGCCGCAAAGAAGTTATTAACTGATGAATAATCCCTCAATATAAATATCTCTCACTTATTTAAA | 0.118 | 0.0892 |  |
| ACAGACGAAGGAGCCGCAAAGAAGTTATTAAGAAATGAATAATCCCTCAATATAAATATCTCTCACTTATTTAAA | 0.1 | 0.0992 |  |
| ACAGACGAAGGAGCCGCAAAGAAGTTATTAAGACATGAATAATCCCTCAATATAAATATCTCTCACTTATTTAAA | 0.132 | 0.111 |  |
| ACAGACGAAGGAGCCGCAAAGAAGTTATTAAGAGAAGAATAAACCCTCAATATAAATATCTCTCACTTATTTAAA | 0.0499 |  |  |
| ACAGACGAAGGAGCCGCAAAGAAGTTATTAAGAGAAGAATAATCCCTCAATATAAATATCTCTCACTTATTTAAA | 0.101 | 0.0791 | 0.107 |
| ACAGACGAAGGAGCCGCAAAGAAGTTATTAAGAGACGAATAATCCCTCAATATAAATATCTCTCACTTATTTAAA | 0.0728 | 0.0781 |  |
| ACAGACGAAGGAGCCGCAAAGAAGTTATTAAGAGAGGAATAATCCCTCAATATAAATATCTCTCACTTATTTAAA | 0.199 |  |  |
| ACAGACGAAGGAGCCGCAAAGAAGTTATTAAGAGATAAAAAATCCCTCAATATAAATATCTCTCACTTATTTAAA | 0.139 |  |  |
| ACAGACGAAGGAGCCGCAAAGAAGTTATTAAGAGATAAATAATCCCTCAATATAAATATCTCTCACTTATTTAAA | 0.0932 | 0.0926 |  |
| ACAGACGAAGGAGCCGCAAAGAAGTTATTAAGAGATAAATAATTCCTCAATATAAATATCTCTCACTTATTTAAA |  | 0.102 |  |
| ACAGACGAAGGAGCCGCAAAGAAGTTATTAAGAGATCAATAATCCCTCAATATAAATATCTCTCACTTATTTAAA | 0.0785 | 0.0924 |  |
| ACAGACGAAGGAGCCGCAAAGAAGTTATTAAGAGATGAAAAATACCTCAATATAAATATCTCTCACTTATTTAAA | 0.146 |  |  |
| ACAGACGAAGGAGCCGCAAAGAAGTTATTAAGAGATGAAAAATCCCTCAATATAAATATCTCTCACTTATTTAAA | 0.18 | 0.119 |  |
| ACAGACGAAGGAGCCGCAAAGAAGTTATTAAGAGATGAACAATCCCTCAATATAAATATCTCTCACTTATTTAAA | 0.205 | 0.0784 |  |

| Sequence | cleaved RNA product abundance [1] | cleaved RNA product abundance [2] | cleaved RNA product abundance [3] |
| --- | --- | --- | --- |
| ACAGACGAAGGAGCCGCAAAGAAGTTATTAAGAGATGAATAAACCCTCAATATAAATATCTCTCACTTATTTAAA | 0.0846 | 0.148 | 0.115 |
| ACAGACGAAGGAGCCGCAAAGAAGTTATTAAGAGATGAATAACCCCTCAATATAAATATCTCTCACTTATTTAAA | 0.147 |  |  |
| ACAGACGAAGGAGCCGCAAAGAAGTTATTAAGAGATGAATAAGCCCTCAATATAAATATCTCTCACTTATTTAAA | 0.0929 | 0.1 |  |
| ACAGACGAAGGAGCCGCAAAGAAGTTATTAAGAGATGAATAATACCTCAATATAAATATCTCTCACTTATTTAAA | 0.109 | 0.106 |  |
| ACAGACGAAGGAGCCGCAAAGAAGTTATTAAGAGATGAATAATACCTCAATATATATATCTCTCACTTATTTAAA | 0.174 |  |  |
| ACAGACGAAGGAGCCGCAAAGAAGTTATTAAGAGATGAATAATACCTCAATTTAAATATCTCTCACTTATTTAAA | 0.0323 |  |  |
| ACAGACGAAGGAGCCGCAAAGAAGTTATTAAGAGATGAATAATCACTCAATATAAATATCTCTCACTTATTTAAA | 0.127 | 0.0955 |  |
| ACAGACGAAGGAGCCGCAAAGAAGTTATTAAGAGATGAATAATCCATCAATATAAATATCTCTCACTTATTTAAA | 0.19 | 0.142 |  |
| ACAGACGAAGGAGCCGCAAAGAAGTTATTAAGAGATGAATAATCCCACAATATAAATATCTCTCACTTATTTAAA | 0.1 | 0.0945 |  |
| ACAGACGAAGGAGCCGCAAAGAAGTTATTAAGAGATGAATAATCCCGCAATATAAATATCTCTCACTTATTTAAA | 0.154 |  |  |
| ACAGACGAAGGAGCCGCAAAGAAGTTATTAAGAGATGAATAATCCCTAAATATAAATATCTCTCACTTATTTAAA | 0.158 | 0.141 | 0.179 |
| ACAGACGAAGGAGCCGCAAAGAAGTTATTAAGAGATGAATAATCCCTCAAAATAAATATCTCTCACTTATTTAAA | 0.106 | 0.101 |  |
| ACAGACGAAGGAGCCGCAAAGAAGTTATTAAGAGATGAATAATCCCTCAACATAAATATCTCTCACTTATTTAAA | 0.132 | 0.111 |  |
| ACAGACGAAGGAGCCGCAAAGAAGTTATTAAGAGATGAATAATCCCTCAAGATAAATATCTCTCACTTATTTAAA | 0.112 |  |  |
| ACAGACGAAGGAGCCGCAAAGAAGTTATTAAGAGATGAATAATCCCTCAATAAAAATATCTCTCACTTATTTAAA | 0.113 |  |  |
| ACAGACGAAGGAGCCGCAAAGAAGTTATTAAGAGATGAATAATCCCTCAATATAAAAATCTCTCACTTATTTAAA | 0.181 | 0.103 |  |
| ACAGACGAAGGAGCCGCAAAGAAGTTATTAAGAGATGAATAATCCCTCAATATAAAGATCTCTCACTTATTTAAA | 0.186 |  |  |
| ACAGACGAAGGAGCCGCAAAGAAGTTATTAAGAGATGAATAATCCCTCAATATAAATACCTCTCACTTATTTAAA | 0.126 |  |  |
| ACAGACGAAGGAGCCGCAAAGAAGTTATTAAGAGATGAATAATCCCTCAATATAAATAGCTCTCACTTATTTAAA | 0.106 |  |  |
